From US20210340231A1 (FAPON BIOTECH, published 2021)
Residue numbers refer to the chain shown, from its start.

Legend:
[1] = biological target: T1, CTNI quality control recombinant protein (PK2-CTNI-1, 170120, produced by the applicant) (human, UniProt P19429 2-210, limits assumed); assay: indirect ELISA, cTnI coated 1 ug/ml, antibody 0.32 ug/ml
T1 construct: also called cardiac troponin I
Description: (§1) The cTnI quality control after diluted to 1 μg/ml with the coating solution was used for microplate coating at 100 uL per well and left at 4° C. overnight. The next day, the microplate was washed twice with the wash solution and tapped for drying. The blocking solution (20% BSA+80% PBS) was added at 120 μL per well and left for 1 h at 37° C., and the microplate was tapped for drying. The diluted cTn monoclonal antibody was added at 100 μL per well and left for 30 min at 37° C.; then the microplate was washed 5 times with the wash solution and tapped for drying. The goat anti-mouse IgG-HRP was added at 100 μL per well and left for 30 min at 37° C.; then the microplate was washed 5 times with the wash solution and tapped for drying. Colour-developing solution A was added at 50 μL per well, followed by colour-developing solution B at 50 μL per well; the mixed solution was left for 10 min; and stopping solution was added at 50 μL per well. The OD value was read out at 450 nm (reference at 630 nm) on the microplate reader.

[2] = biological target: T1, CTNI quality control recombinant …; assay: indirect ELISA, cTnI coated 1 ug/ml, antibody 40 ug/ml
Description: as §1

[3] = biological target: T1, CTNI quality control recombinant …; assay: indirect ELISA, cTnI coated 1 ug/ml, antibody 1.6 ug/ml
Description: as §1

[4] = biological target: T1, CTNI quality control recombinant …; assay: indirect ELISA, cTnI coated 1 ug/ml, antibody 0 ug/ml (blank)
Description: as §1

[5] = biological target: T1, CTNI quality control recombinant …; assay: indirect ELISA, cTnI coated 1 ug/ml, antibody 8 ug/ml
Description: as §1

[6] = biological target: T1, CTNI quality control recombinant …; assay: indirect ELISA, cTnI coated 1 ug/ml, antibody 200 ug/ml
Description: as §1

[7] = biological target: T1, CTNI quality control recombinant …; assay: AMC sensor kinetics, antibody captured, cTnI analyte
Description: Using the AMC sensor, the purified antibody was diluted with PBST to 10 μg/ml, and the CTNI quality control recombinant protein (PK2-CTNI-1, 170120, produced by the applicant) was serially diluted with PBST to 400 nmol/ml, 200 nmol/ml, 100 nmol/ml, 50 nmol/ml, 25 nmol/ml, 12.5 nmol/ml, 6.25 nmol/ml, and 0 nmol/ml.

[8] = biological target: T1, CTNI quality control recombinant …; assay: indirect ELISA, cTnI coated 1 ug/ml, antibody 1000 ug/ml
Description: as §1

T1 sequence (P19429 2-210 limits assumed): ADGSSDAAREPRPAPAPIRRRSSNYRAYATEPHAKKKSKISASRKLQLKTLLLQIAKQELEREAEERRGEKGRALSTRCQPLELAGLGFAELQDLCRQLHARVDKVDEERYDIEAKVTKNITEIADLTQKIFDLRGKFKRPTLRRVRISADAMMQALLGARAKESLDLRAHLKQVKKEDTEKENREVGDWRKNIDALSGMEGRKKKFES

B1: Mutation 1 (antibody, V domains shown)
VH: EVQLQQSGAELVKPGASVKLSCTASGFNLKDYFMHWMKQRTEQGLDWIGRIDPEDAETRYAPEFQGKATITADTSSNTAYLQLSTLTSEDTAVYYCARYYSSYIPFVYWGQGTLVTASA
VL: DVVMTQTPLSLSVSLGDQASISCRSSQSIIYSNRHTYLHWYLQKPGQSPKLLIFQISNRFSGVPDRFSGSGSGTDFTLKINRVEAEDLGVYFCSQSTHLPFTFGSGTKLEIKR
notes: No residue numbers are printed, so each chain is built as FR1-CDR1-FR2-CDR2-FR3-CDR3-FR4-constant
In the case of B1, the “OD 450 nm (reference 630 nm)” value [1] is reported as 0.341 OD, the “OD 450 nm (reference 630 nm)” value [2] is reported as 2.35 OD and the “OD 450 nm (reference 630 nm)” value [3] is reported as 0.973 OD. For the same binder, the “OD 450 nm (reference 630 nm)” value [4] was 0.032 OD, the “OD 450 nm (reference 630 nm)” value [5] was 2.07 OD and the “OD 450 nm (reference 630 nm)” value [6] was 2.4 OD. It also gave a Kd [7] of 0.751 nM, a koff [7] of 0.000155 s⁻¹ and a kon [7] of 206000 M⁻¹ s⁻¹. For the same binder, the “OD 450 nm (reference 630 nm)” value [8] was 2.4 OD.

B2: Mutation 2 (antibody, V domains shown)
VH: B1 VH with D31E, S101T
VL: B1 VL
notes: built as for Mutation 1
B2 was tested, and the “OD 450 nm (reference 630 nm)” value [1] was 0.233 OD, the “OD 450 nm (reference 630 nm)” value [2] was 2.3 OD and the “OD 450 nm (reference 630 nm)” value [3] was 0.724 OD. The “OD 450 nm (reference 630 nm)” value [4] was 0.04 OD, the “OD 450 nm (reference 630 nm)” value [5] was 1.8 OD and the “OD 450 nm (reference 630 nm)” value [6] was 2.42 OD. The “OD 450 nm (reference 630 nm)” value [8] was 2.38 OD.

B3: Mutation 4 (antibody, V domains shown)
VH: B1 VH with D52E
VL: B1 VL with R34K, Q95N
notes: built as for Mutation 1
B3 was tested, and the “OD 450 nm (reference 630 nm)” value [1] was 0.314 OD, the “OD 450 nm (reference 630 nm)” value [2] was 1.98 OD and the “OD 450 nm (reference 630 nm)” value [3] was 0.689 OD. For the same binder, the “OD 450 nm (reference 630 nm)” value [4] was 0.03 OD, the “OD 450 nm (reference 630 nm)” value [5] was 1.75 OD and the “OD 450 nm (reference 630 nm)” value [6] was 2.15 OD. For the same binder, the “OD 450 nm (reference 630 nm)” value [8] was 2.22 OD.

B4: Mutation 3 (antibody, V domains shown)
VH: B1 VH with D31E, S101T
VL: B1 VL with N58Q
notes: built as for Mutation 1
In the case of B4, the “OD 450 nm (reference 630 nm)” value [1] is reported as 0.301 OD, the “OD 450 nm (reference 630 nm)” value [2] is reported as 2.25 OD and the “OD 450 nm (reference 630 nm)” value [3] is reported as 0.831 OD. For the same binder, the “OD 450 nm (reference 630 nm)” value [4] was 0.028 OD, the “OD 450 nm (reference 630 nm)” value [5] was 1.86 OD and the “OD 450 nm (reference 630 nm)” value [6] was 2.37 OD. For the same binder, the “OD 450 nm (reference 630 nm)” value [8] was 2.35 OD.

B5: Mutation 5 (antibody, V domains shown)
VH: B1 VH with D52E
VL: B1 VL with R34K, N58Q, Q95N
notes: built as for Mutation 1
With B5 the “OD 450 nm (reference 630 nm)” value [1] was 0.189 OD, the “OD 450 nm (reference 630 nm)” value [2] was 1.94 OD and the “OD 450 nm (reference 630 nm)” value [3] was 0.721 OD. For the same binder, the “OD 450 nm (reference 630 nm)” value [4] was 0.042 OD, the “OD 450 nm (reference 630 nm)” value [5] was 1.69 OD and the “OD 450 nm (reference 630 nm)” value [6] was 2.2 OD. For the same binder, the “OD 450 nm (reference 630 nm)” value [8] was 2.2 OD.
